In the RNAGym collection of RNA variant scans (doi:10.1021/acssynbio.7b00057):

B1: Pistol ribozyme (parent)
chain: GGGUCGUUGUUCCAUAAUCGCGUGGAUAUGGCACGCAAGUUUCUACCGGGCACCGUAAAUGUCCGACUGGAGCCGUUCGGGCGGCUAUAAACAGACCUCAGGCCCGAAGCGUGGCGGCACCUGCCGCCGGUGGUAAAAAAGAUCGGAAGAGCACACGUCU

Variants of: B1
Assay: aptazyme ON/OFF ratio, guanine; higher = stronger switching; co-transcriptional cleavage with and without guanine

| Variant | aptazyme ON/OFF ratio |
| --- | --- |
| U7A U8A G9U U10C U11G C13G | 1.17 |
| U7A U8A G9U U10C U11G C13U | 1.14 |
| U7A U8A G9U U10C U11G C13A | 1.1 |
| U7A U8A G9U U11G C12U C13A | 1.28 |
| U7A U8A G9U U11G C12U C13U | 1.55 |
| U7A U8A G9U U11G C12U C13G | 1.17 |
| U7A U8A U10C C12U C13G | 1.07 |
| U7A U8A U10C C12U C13A | 1.05 |
| U7A U8A U10C C12U C13U | 1.14 |
| U7A U8A G9U U10C U11G C12A C13A | 1.14 |
| U7A U8A G9U U10C U11G C12A C13U | 1.18 |
| U7A U8A G9U U10C U11G C12A C13G | 1.11 |
| U7A U8A G9U U10A U11G | 1.38 |
| U7A U8A G9U U10A U11C | 1.08 |
| U7A U8A U10C U11C C12U C13A | 1.04 |
| U7A U8A U10C U11C C12U C13G | 1.15 |
| U7A U8A U10C U11C C12U C13U | 1.05 |
| U7A U8A G9U U10A U11C C12U C13U | 1.21 |
| U7A U8A G9U U10A U11C C12U C13A | 1.06 |
| U7A U8A G9U U10A U11C C12U C13G | 1.05 |
| U7A U8A U10A C12G | 1.26 |
| U7A U8A U10A C12A | 1.33 |
| U7A U8A U10A C12U | 1.11 |
| U7A U8A G9U U10A U11A C13A | 1.23 |

| Variant | aptazyme ON/OFF ratio |
| --- | --- |
| U7A U8A G9U U10A U11A C13U | 1.27 |
| U7A U8A G9U U10A U11A C13G | 1.07 |
| U7A U8A U10C U11G C12A C13A | 1.12 |
| U7A U8A G9U U10G U11C C12G | 1.2 |
| U7A U8A G9U U10G U11C C12U | 1.08 |
| U7A U8A G9U U10G U11C C12A | 1.33 |
| U7A U8A G9U U10G U11G C12U C13G | 1.24 |
| U7A U8A G9U U10G U11G C12U C13U | 1.22 |
| U7A U8A G9U U10G U11G C12U C13A | 1.47 |
| U7A U8A G9U U10G U11C C12U C13A | 1.09 |
| U7A U8A G9U U10G U11C C12U C13G | 1.22 |
| U7A U8A G9U U10G U11C C12U C13U | 1.28 |
| U7A U8A G9U U10A U11G C13A | 1.22 |
| U7A U8A G9U U10A U11G C13U | 1.19 |
| U7A U8A G9U U10A U11G C13G | 1.13 |
| U7A U8A G9U U10C U11G C12G | 1.15 |
| U7A U8A G9U U10C U11G C12U | 1.22 |
| U7A U8A G9U U10C U11G C12A | 1.04 |
| U7A U8A G9U U10C U11A C12G | 1.18 |
| U7A U8A G9U U10C U11A C12U | 1.23 |
| U7A U8A G9U U10C U11A C12A | 1.22 |
| U7A U8A G9U U11C C12G C13A | 1.18 |
| U7A U8A G9U U11C C12G C13G | 1.04 |
| U7A U8A G9U U11C C12G C13U | 1.29 |

| Variant | aptazyme ON/OFF ratio |
| --- | --- |
| U7A U8A U10A U11C C12G C13A | 1.06 |
| U7A U8A U10A U11C C12G C13U | 1.15 |
| U7A U8A U10A U11C C12G C13G | 1.24 |
| U7A U8A G9U U11A C12U | 1.15 |
| U7A U8A G9U U11A C12G | 1.33 |
| U7A U8A G9U U11A C12A | 1.25 |
| U7A U8A G9U U10G U11A C12U C13U | 1.13 |
| U7A U8A G9U U10G U11A C12U C13G | 1.15 |
| U7A U8A G9U U10G U11A C12U C13A | 1.14 |
| U7A U8A G9U U10A U11A C12U C13A | 1.2 |
| U7A U8A G9U U10A U11A C12U C13U | 1.22 |
| U7A U8A G9U U10A U11A C12U C13G | 1.22 |
| U7A U8A U10C U11C C12G C13U | 1.08 |
| U7A U8A U10C U11C C12G C13G | 1.21 |
| U7A U8A U10C U11C C12G C13A | 1.1 |
| U7A U8A U10C U11A | 1.2 |
| U7A U8A U10C U11G | 1.2 |
| U7A U8A U10C U11C | 1.04 |
| U7A U8A U10C U11A C12A C13A | 1.1 |
| U7A U8A U10C U11A C12A C13G | 1.18 |
| U7A U8A U10C U11A C12A C13U | 1.16 |
| U7A U8A G9U U10G U11A C12U | 1.07 |
| U7A U8A G9U U10G U11A C12G | 1.32 |
| U7A U8A G9U U10G U11A C12A | 1.29 |

| Variant | aptazyme ON/OFF ratio |
| --- | --- |
| U7A U8A G9U U10A U11C C12A C13U | 1.14 |
| U7A U8A G9U U10A U11C C12A C13G | 1.08 |
| U7A U8A G9U U10A U11C C12A C13A | 1.11 |
| U7A U8A G9U U10A U11C C12G C13A | 1.18 |
| U7A U8A G9U U10A U11C C12G C13G | 1.15 |
| U7A U8A G9U U10A U11C C12G C13U | 1.18 |
| U7A U8A U10C U11A C12U C13A | 1.16 |
| U7A U8A U10C U11A C12U C13G | 1.1 |
| U7A U8A U10C U11A C12U C13U | 1.11 |
| U7A U8A U10A U11C C12G | 1.1 |
| U7A U8A U10A U11C C12A | 1.04 |
| U7A U8A U10A U11C C12U | 1.03 |
| U7A U8A U10A U11A C12U C13U | 1.14 |
| U7A U8A U10A U11A C12U C13G | 1.24 |
| U7A U8A U10A U11A C12U C13A | 1.33 |
| U7A U8A U10C U11G C12A | 1.09 |
| U7A U8A G9U U11A | 0.956 |
| U7A U8A G9U U11C | 1.09 |
| U7A U8A G9U U11G | 1.36 |
| U7A U8A G9U U10G U11A C12G C13A | 1.18 |
| U7A U8A G9U U10G U11A C12G C13U | 1.51 |
| U7A U8A G9U U10G U11A C12G C13G | 1.4 |
| U7A U8A U10A U11G C12A C13G | 1.07 |
| U7A U8A U10A U11G C12A C13A | 1.19 |

| Variant | aptazyme ON/OFF ratio |
| --- | --- |
| U7A U8A U10A U11G C12A C13U | 1.18 |
| U7A U8A G9U U10G U11C C12A C13G | 1.15 |
| U7A U8A G9U U10G U11C C12A C13U | 1.21 |
| U7A U8A G9U U10G U11C C12A C13A | 1.29 |
| U7A U8A G9U U10C U11A C13G | 1.17 |
| U7A U8A G9U U10C U11A C13U | 1.08 |
| U7A U8A G9U U10C U11A C13A | 1.22 |
| U7A U8A U10C U11C C13A | 1.01 |
| U7A U8A U10C U11C C13G | 1.07 |
| U7A U8A U10C U11C C13U | 1.02 |
| U7A U8A U10A U11C C12A C13G | 1.12 |
| U7A U8A U10A U11C C12A C13U | 1.11 |
| U7A U8A U10A U11C C12A C13A | 1.04 |
| U7A U8A U10A U11G C12G C13A | 0.986 |
| U7A U8A U10A U11G C12G C13U | 1.35 |
| U7A U8A U10A U11G C12G C13G | 1.6 |
| U7A U8A U10A C12U C13G | 1.1 |
| U7A U8A U10A C12U C13U | 1.2 |
| U7A U8A U10A C12U C13A | 1.28 |
| U7A U8A U10A C13G | 1.06 |
| U7A U8A U10A C13A | 1.11 |
| U7A U8A U10A C13U | 1.06 |
| U7A U8A U10A U11C C12U C13U | 1.04 |
| U7A U8A U10A U11C C12U C13A | 1.11 |

| Variant | aptazyme ON/OFF ratio |
| --- | --- |
| U7A U8A U10A U11C C12U C13G | 1.1 |
| U7A U8A G9U U10A U11C C13A | 1.08 |
| U7A U8A G9U U10A U11C C13G | 1.1 |
| U7A U8A G9U U10A U11C C13U | 1.01 |
| U7A U8A G9U U10G U11C C13U | 1.02 |
| U7A U8A G9U U10G U11C C13A | 1.06 |
| U7A U8A G9U U10G U11C C13G | 1.09 |
| U7A U8A G9U U11G C12A | 1.1 |
| U7A U8A G9U U11G C12U | 1.31 |
| U7A U8A G9U U11G C12G | 1.19 |
| U7A U8A G9U U10A U11G C12U C13G | 1.15 |
| U7A U8A G9U U10A U11G C12U C13A | 1.25 |
| U7A U8A G9U U10A U11G C12U C13U | 1.27 |
| U7A U8A G9U U11C C12A | 1.17 |
| U7A U8A G9U U11C C12U | 1.13 |
| U7A U8A G9U U11C C12G | 1.19 |
| U7A U8A U10A U11G C13G | 1.28 |
| U7A U8A U10A U11G C13U | 1.26 |
| U7A U8A U10A U11G C13A | 1.16 |
| U7A U8A U10A C12G C13U | 1.23 |
| U7A U8A U10A C12G C13G | 1.17 |
| U7A U8A U10A C12G C13A | 1.14 |
| U7A U8A G9U U10C C12U | 1.24 |
| U7A U8A G9U U10C C12G | 1.43 |

| Variant | aptazyme ON/OFF ratio |
| --- | --- |
| U7A U8A G9U U10C C12A | 1.17 |
| U7A U8A G9U U10C U11C C12G C13A | 1.07 |
| U7A U8A G9U U10C U11C C12G C13G | 1.07 |
| U7A U8A G9U U10C U11C C12G C13U | 1.04 |
| U7A U8A U10C C12G | 1.16 |
| U7A U8A U10C C12U | 1.68 |
| U7A U8A U10C C12A | 1.16 |
| U7A U8A G9U U11G C13A | 1.13 |
| U7A U8A G9U U11G C13U | 1.16 |
| U7A U8A G9U U11G C13G | 1.08 |
| U7A U8A U10C U11A C12A | 1.24 |
| U7A U8A U10C U11A C12G | 1.19 |
| U7A U8A U10C U11A C12U | 1.14 |
| U7A U8A G9U U10A U11A C12U | 1.34 |
| U7A U8A G9U U10A U11A C12G | 1.23 |
| U7A U8A G9U U10G C13A | 1.24 |
| U7A U8A G9U U10G C13G | 1.21 |
| U7A U8A G9U U10G C13U | 1.36 |
| U7A U8A G9U U10G | 1.61 |
| U7A U8A G9U U10C | 2.34 |
| U7A U8A G9U U10G U11G C12A | 1.13 |
| U7A U8A G9U U10G U11G C12U | 1.37 |
| U7A U8A G9U U10G U11G C12G | 1.41 |
